Consider six molecules from PMC5344419, “The structure of FKBP38 in complex with the MEEVD tetratricopeptide binding-motif of Hsp90” (PLoS ONE, 2017).

B2: FKBP8 (FKBP^1-380), amino acids 1-380, lacking the C-terminal trans-membrane helix (domain or fragment, UniProt Q14318 1-380, looked up)
chain: MASCAEPSEPSAPLPAGVPPLEDFEVLDGVEDAEGEEEEEEEEEEEDDLSELPPLEDMGQPPAEEAEQPGALAREFLAAMEPEPAPAPAPEEWLDILGNGLLRKKTLVPGPPGSSRPVKGQVVTVHLQTSLENGTRVQEEPELVFTLGDCDVIQALDLSVPLMDVGETAMVTADSKYCYGPQGRSPYIPPHAALCLEVTLKTAVDGPDLEMLTGQERVALANRKRECGNAHYQRADFVLAANSYDLAIKAITSSAKVDMTFEEEAQLLQLKVKCLNNLAASQLKLDHYRAALRSCSLVLEHQPDNIKALFRKGKVLAQQGEYSEAIPILRAALKLEPSNKTIHAELSKLVKKHAAQRSTETALYRKMLGNPSRLPAKCPG
notes: FKBP8, amino acids 1-380, lacking the C-terminal trans-membrane helix; numbers count on full-length FKBP8 (Arg 184 is Arg 127 in FKBP38 numbering); Non-cleavable C-terminal His6 tag from pDMXV4; also called FKBP8 isoform; not shown: His6, C-terminal, kept

Common to all, as to settings: both partners purified
In assay [1] the target is B2. The experiment in a line: ITC; 2 mM peptide injected into 50 μM FKBP^1-380 in the cell; ITC200; 20 mM Tris, 300 mM NaCl, 1 mM EDTA pH 7.5. Background: In ITC the heat of successive injections is recorded.
Assay [2] deals with B2. Description: ITC; 700 to 800 μM FKBP construct injected into 50 μM Hsp90 or Hsp70 protein in the cell; ITC200; 20 mM Tris, 300 mM NaCl, 1 mM EDTA pH 7.5.
The target of another assay is T1, Full-length human Hsp90β (human, UniProt P08238 1-724).
T1 construct: Hsp90β, human, full length; Expressed from pRSETA as a His-tagged fusion; also called intact Hsp90β
The description is as above.

The target in assay [3] is T2, Hsp90β^295-724, middle and C-terminal domain fragment of human Hsp90β (human, UniProt P08238 295-724).
T2 construct: Hsp90β, human, residues 295-724 (middle and C-terminal domain, with the MEEVD motif); Expressed from pRSETA as a His-tagged fusion; also called Hsp90^295-724
Described as above.

T1 sequence (P08238 whole entry, the tested form may be a part): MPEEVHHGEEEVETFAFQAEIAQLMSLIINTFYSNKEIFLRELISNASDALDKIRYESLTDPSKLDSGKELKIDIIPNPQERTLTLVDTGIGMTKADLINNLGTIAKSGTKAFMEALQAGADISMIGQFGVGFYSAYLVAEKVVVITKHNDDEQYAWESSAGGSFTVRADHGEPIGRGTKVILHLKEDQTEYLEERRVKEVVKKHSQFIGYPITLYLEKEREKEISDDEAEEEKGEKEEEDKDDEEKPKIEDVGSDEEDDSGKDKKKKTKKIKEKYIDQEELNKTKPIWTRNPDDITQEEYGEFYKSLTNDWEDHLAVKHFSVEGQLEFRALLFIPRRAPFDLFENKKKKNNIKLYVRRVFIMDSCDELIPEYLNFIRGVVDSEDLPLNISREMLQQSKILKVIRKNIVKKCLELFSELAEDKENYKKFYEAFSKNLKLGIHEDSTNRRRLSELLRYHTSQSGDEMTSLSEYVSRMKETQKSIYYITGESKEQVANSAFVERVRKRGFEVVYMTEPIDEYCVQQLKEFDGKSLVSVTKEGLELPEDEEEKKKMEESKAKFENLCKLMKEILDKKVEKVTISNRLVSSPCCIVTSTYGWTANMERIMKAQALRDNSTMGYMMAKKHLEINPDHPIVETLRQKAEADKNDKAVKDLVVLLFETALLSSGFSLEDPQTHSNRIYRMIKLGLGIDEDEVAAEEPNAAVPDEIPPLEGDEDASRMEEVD
T2 sequence (P08238 295-724): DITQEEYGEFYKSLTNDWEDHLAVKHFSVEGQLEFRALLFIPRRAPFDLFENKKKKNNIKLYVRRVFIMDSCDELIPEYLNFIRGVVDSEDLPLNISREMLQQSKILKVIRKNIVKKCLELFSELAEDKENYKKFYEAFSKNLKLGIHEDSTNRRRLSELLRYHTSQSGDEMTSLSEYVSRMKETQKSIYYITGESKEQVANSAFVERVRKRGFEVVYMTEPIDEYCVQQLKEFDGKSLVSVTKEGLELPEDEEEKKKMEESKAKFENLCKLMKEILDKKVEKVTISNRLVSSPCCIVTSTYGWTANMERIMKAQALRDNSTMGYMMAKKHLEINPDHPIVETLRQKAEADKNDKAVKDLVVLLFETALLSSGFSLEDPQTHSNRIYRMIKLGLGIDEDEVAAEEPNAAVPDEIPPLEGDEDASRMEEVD

For GSGPTIEEVD (C-terminal peptide of human Hsp70) [Human Hsp70 GSGPTIEEVD C-terminal peptide], the Kd – broadly, the equilibrium constant for the complex coming apart – in assay [1] was 147 µM.

B1: Hsp90α^464-732, C-terminal domain of human Hsp90α (domain or fragment)
chain: not shown
notes: Hsp90α, human, residues 464-732 (C-terminal domain); Expressed from p2E as a PreScission cleavable His-tagged fusion; also called C-terminal domain of Hsp90α
In assay [2], B1 returned a Kd of 8.3 ± 0.6 µM. For the molecule B2, in the assay with Full-length human Hsp90β, binding was put at a Kd of 2.8 ± 0.1 µM and the stoichiometry N (commonly the number of molecules, sites or subunits per partner or assembly) is 1. In assay [3], binding was put at a Kd of 6.4 ± 0.5 µM.

B3: Hsp90β EDASRMEEVD C-terminal peptide (peptide)
peptide: EDASRMEEVD
notes: the terminal ten amino-acid residues of Hsp90β
B3: the dissociation constant (Kd) in assay [1] worked out at 64.5 ± 3.7 µM.

B4: Yeast C-terminal fragment of Hsp90 (yHsp90^546-709) (domain or fragment)
chain: not shown
notes: Expressed from pRSETA as a His-tagged fusion; also called C-terminal domain of yeast Hsp90
In assay [2], B4 registered a Kd of 2.3 ± 0.2 µM.

B5: FKBP38 isoform (FKBP^92-380), immunophilin and TPR domain (domain or fragment, UniProt Q14318 92-380, looked up)
chain: EWLDILGNGLLRKKTLVPGPPGSSRPVKGQVVTVHLQTSLENGTRVQEEPELVFTLGDCDVIQALDLSVPLMDVGETAMVTADSKYCYGPQGRSPYIPPHAALCLEVTLKTAVDGPDLEMLTGQERVALANRKRECGNAHYQRADFVLAANSYDLAIKAITSSAKVDMTFEEEAQLLQLKVKCLNNLAASQLKLDHYRAALRSCSLVLEHQPDNIKALFRKGKVLAQQGEYSEAIPILRAALKLEPSNKTIHAELSKLVKKHAAQRSTETALYRKMLGNPSRLPAKCPG
notes: FKBP8, fragment 92-380 containing both the immunophilin (PPIase) and TPR domain; numbers count on full-length FKBP8; also called FKBP8^92-380; not shown: His6 (from the vector pDMXV4), C-terminal, kept
As to B5, in the assay with Full-length human Hsp90β, the affinity, expressed as Kd, was 2.6 ± 0.2 µM and the “stoichiometry N” value was 1.
